# Changes are numbered by the printed parent chain. Names and notes keep the numbering of the source.
# T1: EsCas13d, nuclease-dead (Eubacterium siraeum, UniProt B0MS50, R295A;H300A;R849A;H854A)
# T1 sequence: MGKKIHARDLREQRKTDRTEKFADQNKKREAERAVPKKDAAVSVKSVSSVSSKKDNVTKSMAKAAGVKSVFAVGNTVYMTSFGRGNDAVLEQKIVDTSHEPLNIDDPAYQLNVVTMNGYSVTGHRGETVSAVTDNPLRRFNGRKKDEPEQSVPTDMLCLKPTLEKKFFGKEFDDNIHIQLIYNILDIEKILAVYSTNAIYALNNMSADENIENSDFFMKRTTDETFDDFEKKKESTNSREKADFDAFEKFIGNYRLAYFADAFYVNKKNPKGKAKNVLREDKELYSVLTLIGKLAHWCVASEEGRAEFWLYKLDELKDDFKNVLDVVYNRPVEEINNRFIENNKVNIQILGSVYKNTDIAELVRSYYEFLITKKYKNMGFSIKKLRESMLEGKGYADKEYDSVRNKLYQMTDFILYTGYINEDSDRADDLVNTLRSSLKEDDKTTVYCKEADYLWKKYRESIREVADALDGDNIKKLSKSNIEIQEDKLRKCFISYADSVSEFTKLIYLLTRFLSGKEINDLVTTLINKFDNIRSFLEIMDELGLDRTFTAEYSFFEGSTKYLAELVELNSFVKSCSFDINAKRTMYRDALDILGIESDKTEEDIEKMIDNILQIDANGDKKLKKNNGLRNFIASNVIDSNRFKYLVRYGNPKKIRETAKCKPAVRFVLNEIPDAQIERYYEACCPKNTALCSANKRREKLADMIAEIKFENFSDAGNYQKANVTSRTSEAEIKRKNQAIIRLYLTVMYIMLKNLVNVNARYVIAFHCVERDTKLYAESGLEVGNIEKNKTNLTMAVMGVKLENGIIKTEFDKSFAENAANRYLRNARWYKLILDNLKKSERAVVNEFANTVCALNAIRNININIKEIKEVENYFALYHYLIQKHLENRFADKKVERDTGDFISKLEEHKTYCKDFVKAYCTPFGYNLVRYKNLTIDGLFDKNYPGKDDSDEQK
# B1: target 1 insC 3' of 19,insG 3' of 8 (mixed)
# RNA 1: CACCCGUGCAAAAAUGCAGGGGUCUAAAACUGAGCGGAUAACCUCUCUAUGG
# RNA 2: GGGAAUGGAUCCACAUCUACGAAUUCGUACCAUCAGAGAGGUUAUGCCGCUCACCGAGAUCGGAAGAGCACACGU
# B2: target 1 insA 3' of 10,insG 3' of 2 (mixed)
# RNA 1: B1 RNA 1
# RNA 2: GGGAAUGGAUCCACAUCUACGAAUUCGUACCAUAGAGAGGUUAAUCCGCUCGACCGAGAUCGGAAGAGCACACGU
# B3: target 1 U11G,C21A (mixed)
# RNA 1: B1 RNA 1
# RNA 2: GGGAAUGGAUCCACAUCUACGAAUUCGUACAAUAGAGAGGGUAUCCGCUCACCGAGAUCGGAAGAGCACACGU
# B4: target 1 del13,del17 (mixed)
# RNA 1: B1 RNA 1
# RNA 2: GGGAAUGGAUCCACAUCUACGAAUUCGUACCAUAAGAGUUAUCCGCUCACCGAGAUCGGAAGAGCACACGU
# B5: target 1 C4U,A9U (mixed)
# RNA 1: B1 RNA 1
# RNA 2: B3 RNA 2 with A31C, G41U, A43U, C48U
# B6: target 1 insU 3' of 18,insC 3' of 8 (mixed)
# RNA 1: B1 RNA 1
# RNA 2: B1 RNA 2 with C34A, A35U, G46C
# B7: target 1 insU 3' of 7,insC 3' of 1 (mixed)
# RNA 1: B1 RNA 1
# RNA 2: B2 RNA 2 with A44U, U45C, C46U, G52A, A53C
# B8: target 1 U3C,G5U (mixed)
# RNA 1: B1 RNA 1
# RNA 2: B3 RNA 2 with A31C, G41U, G47U, U49C
# B9: target 1 insU 3' of 18,insG 3' of 14 (mixed)
# RNA 1: B1 RNA 1
# RNA 2: B1 RNA 2 with C34A, A35U, U42G, A44U, U45A, G46U
# B10: target 1 complement block 5-13 (mixed)
# RNA 1: B1 RNA 1
# RNA 2: GGGAAUGGAUCCACAUCUACGAAUUCGUACCAUAGAGACCAAUAGGCCUCACCGAGAUCGGAAGAGCACACGU
# B11: target 1 C7G,A20U (mixed)
# RNA 1: B1 RNA 1
# RNA 2: B3 RNA 2 with A31C, A32U, G41U, C45G
# B12: target 1 A9U,G12U (mixed)
# RNA 1: B1 RNA 1
# RNA 2: B3 RNA 2 with A31C, G40U, G41U, A43U
# B13: target 1 insG 3' of 10,insU 3' of 6 (mixed)
# RNA 1: B1 RNA 1
# RNA 2: B2 RNA 2 with A43G, G48U, C49G, U50C, C51U, G52C
# B14: target 1 A1U,G15U (mixed)
# RNA 1: B1 RNA 1
# RNA 2: B3 RNA 2 with A31C, G37U, G41U, A51U
# B15: target 1 C7A,U11C (mixed)
# RNA 1: B1 RNA 1
# RNA 2: B3 RNA 2 with A31C, G41C, C45A
# Target: T1, EsCas13d, nuclease-dead
# Experiment: crRNA (strand 1, pre-loaded); Mg2+; 40 mM Tris-HCl pH 7.5, 150 mM NaCl, 6 mM MgCl2, 1 mM DTT, 0.1% Tween-20, 0.2 mg/ml BSA; 25 C; 10 min per concentration, then washed
# Conditions: tags: His6-TwinStrep-SUMO cleaved; N-terminal SNAP kept (SNAP-Surface 488); label: 3' end held by stalled T7 RNA polymerase
row,Binder,Kd
1,B1,45 ± 7 nM
2,B2,12.4 ± 0.7 nM
3,B3,64 ± 12 nM
4,B4,55 ± 20 nM
5,B5,50 ± 16 nM
6,B6,53 ± 4 nM
7,B7,13.9 ± 0.6 nM
8,B8,42 ± 9 nM
9,B9,46 ± 3 nM
10,B10,~80 nM
11,B11,47 ± 6 nM
12,B12,10.9 ± 1.1 nM
13,B13,36.8 ± 3.1 nM
14,B14,25.9 ± 3 nM
15,B15,8.4 ± 0.4 nM

# — article PMC10786891, “Massively parallel profiling of RNA-targeting CRISPR-Cas13d”
